Laboratory results published in patent US20220306762A1 (CRYSTAL BIOSCIENCE, published 2022).

T1: murine CD38 on transiently transfected Expi293 cells (Origene MC208001) (murine, UniProt P56528 1-304)
T1 construct: whole, on cells; also called Murine (FACs)
T1 sequence (looked up): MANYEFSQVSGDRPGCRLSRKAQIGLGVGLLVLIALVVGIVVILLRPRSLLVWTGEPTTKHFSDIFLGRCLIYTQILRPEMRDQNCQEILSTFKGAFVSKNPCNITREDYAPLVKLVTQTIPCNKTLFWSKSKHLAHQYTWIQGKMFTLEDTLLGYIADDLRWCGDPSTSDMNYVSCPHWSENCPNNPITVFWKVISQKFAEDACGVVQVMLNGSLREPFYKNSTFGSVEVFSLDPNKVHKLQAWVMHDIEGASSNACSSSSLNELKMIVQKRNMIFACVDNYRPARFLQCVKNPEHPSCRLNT

T2: His-tagged mouse CD38 (ACRO Biosystems #CD8-M5223) (mouse, UniProt P56528 45-304)
T2 construct: bought recombinant protein with His tag; also called Murine
T2 sequence (looked up): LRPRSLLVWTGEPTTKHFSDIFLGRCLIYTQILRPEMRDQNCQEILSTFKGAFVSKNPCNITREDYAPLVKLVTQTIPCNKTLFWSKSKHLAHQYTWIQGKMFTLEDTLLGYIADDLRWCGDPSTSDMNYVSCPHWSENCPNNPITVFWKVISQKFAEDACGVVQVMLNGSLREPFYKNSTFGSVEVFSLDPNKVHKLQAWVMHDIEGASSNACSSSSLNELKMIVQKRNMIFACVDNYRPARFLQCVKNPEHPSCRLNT


Key:
[1] = target: T3, human CD38 on transiently transfected Expi293 cells (Origene #SC321273) (human, UniProt P28907 1-300); test: flow cytometry, transfected Expi293 cells;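 further: antibody binding to Expi293 cells transiently expressing human or murine CD38, antibodies applied at 10 ug/ml for 60 min on ice, read by flow cytometry as percent gated cells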
T3 construct: whole, on cells; also called Human (FACs)

[2] = target: T1, murine CD38 on transiently transfected …; test: flow cytometry, transfected Expi293 cells;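 further: antibody binding to Expi293 cells transiently expressing human or murine CD38, antibodies applied at 10 ug/ml for 60 min on ice, read by flow cytometry as percent gated cells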
[3] = target: T4, His-tagged human CD38 (ACRO Biosystems cat #CD8-H5224) (human, UniProt P28907 43-300); test: SPR, captured scFv-Fc, His-CD38 analyte;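 further: SPR on a Carterra LSA, scFv-Fc captured by anti-human Fc on HC30M chip, His-tagged CD38 (human, mouse, cynomolgus) flowed as analyte in eight 1:2 steps from 400 nM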
T4 construct: bought recombinant protein with His tag

[4] = target: T2, His-tagged mouse CD38 (ACRO Biosystems …); test: SPR, captured scFv-Fc, His-CD38 analyte;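 further: SPR on a Carterra LSA, scFv-Fc captured by anti-human Fc on HC30M chip, His-tagged CD38 (human, mouse, cynomolgus) flowed as analyte in eight 1:2 steps from 400 nM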
[5] = target: T5, His-tagged cynomolgus monkey CD38 (ACRO Biosystems cat #CD8-05223) (cynomolgus monkey, UniProt Q5VAN0 43-301); test: SPR, captured scFv-Fc, His-CD38 analyte;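 further: SPR on a Carterra LSA, scFv-Fc captured by anti-human Fc on HC30M chip, His-tagged CD38 (human, mouse, cynomolgus) flowed as analyte in eight 1:2 steps from 400 nM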
T5 construct: bought recombinant protein with His tag

[6] = target: T4, His-tagged human CD38 (ACRO Biosystems …); test: ELISA, coated His-CD38
[7] = target: T2, His-tagged mouse CD38 (ACRO Biosystems …); test: ELISA, coated His-CD38
[8] = target: T5, His-tagged cynomolgus monkey CD38 (ACRO …); test: ELISA, coated His-CD38

| FACs 10 ug/ml (percent gated) [1] [%] | FACs 10 ug/ml (percent gated) [2] [%] | Kd [3] [nM] | Kd [4] [nM] | Kd [5] [nM] | ELISA 1 ug/ml [6] | ELISA 1 ug/ml [7] | ELISA 1 ug/ml [8] | Binder |
| --- | --- | --- | --- | --- | --- | --- | --- | --- |
| 6.05 | 49.9 | 104 | 224 | 549 | 1.43 | 1.24 | 1.44 | 40566p1.B11 (scFv, V domains shown, tested as scFv-Fc supernatant) VH: DVQLVESGGGLVRPGESLRLSCAASGFTFDNYDMTWVRQAPGEGLEWVSFISSRGTFTYYTDSVKGRFTISRDNSKNTLYLQMNSLRAEDTAIYYCAKDSGEYYFFDYWGLGTLVTVSS VL: EIVMTQSPATLSVSPGERATFSCRASQSVNSKLAWYQQKPGQAPRLLIYGASRRATGIPDRFSESGSGTEFTLTISSLQSEDFAVYYCQQYHDWPPLTFGGGTKVEIK |
| 31.3 | 76.9 | 0.269 | 0.351 | 4.67 | 1.83 | 1.97 | 1.66 | 40566p1.C9 (scFv, V domains shown, tested as scFv-Fc supernatant) VH: DVQLVESGGGVVRPGESLRLSCAASGFTFDNYDMTWVRQAPGEGLEWVSFISSRGTFTYYTDSVKGRFTISRDNSKNTLYLQMNSLRAEDTAIYYCTKDSGEYYFFDYWGLGTLVTVSS VL: ETVMTQSPATLSVSPGERATFSCRASQSVNSKLAWYQQKPGQAPRLLIYDASRRATGIPDRFSGSGSGTEFTLTISSLQSEDFAVYFCQQYYDWPPLTFGGGTKVEIK |
| 19.5 | 72.1 | 10900 | 7.59 | 4.82 | 1.75 | 1.88 | 1.8 | 40566p1.F8 (scFv, V domains shown, tested as scFv-Fc supernatant) VH: DVQLVESGGGVVRPGESLRLSCAASGFTFDNYDMTWVRQAPGEGLEWVSFISSRGTFAYYTDSVKGRFTISRDNSKNTLYLQMNSLRAEDTAIYYCTKDSGEYYFFDYWGLGTLVTVSS VL: EIVMTQSPATLSVSPGERATFSCRASQSVNSKLAWYQQKPGQAPRLLIYGASRRATGIPDRFSGSGSGTEFTLTISSLQSEDFAVYYCQQYYDWPPLTFGGGTKVEIK |
| 66.1 | 45.4 | 46600 | 9070 | 110 | 1.79 | 1.76 | 1.99 | 40596p1.B1 (scFv, V domains shown, tested as scFv-Fc supernatant) VH: EVQLLESGGGLVEPGGSLRLSCAASGFDFSTYAMTWVRQAPGKGLEWVAGNGWSGSFIYYADSVKGRFTISRDNSKNTLYLQMNSLRAEDTAVYYCTRNPGFGEMDVWGQGTTVTVSS VL: EIVLTQSPGTLRLSPGERATLSCKASQTVGTTLAWYQQKPGQAPRLLIYGASTRATGIPDRFSGSGSGTEFTLTISSLQSEDFADYYCQQYKSWPPLTFGGGTKVEIK |
| 72.8 | 68.6 | 84.7 | 10.8 | 98.4 | 1.91 | 1.9 | 1.87 | 40596p1.F6 (scFv, V domains shown, tested as scFv-Fc supernatant) VH: EVQLLESGGGLVQPGGSLRLSCAASGFDFSKNAMSWVRQAPGKGLEYVAGSGWSGSFIFYADSVKGRFTVSRDNSENTLYLQMSSLRAEDTAVYYCAKNPGFGEMDVWGQGTTVTVSS VL: EIVLTQSPGSLFLSPGERATLTCRASQTIGSNLAWYQQKFGQAPRLLIYGASTRAADIPDRFSGSGSGTEFTLTISSLQSEDFAVYYCQQYNSWPPLTFGGGTKVEIK |
| 71.5 | 61 | 63.7 | 19 | 154 | 1.98 | 1.77 | 1.85 | 40596p1.D2 (scFv, V domains shown, tested as scFv-Fc supernatant) VH: EVQLLESGGGLVQPGGSLRLSCAASGFDFSKNAMSWVRQAPGKGLEYVAGSGWSGSFIFYADSVKGRSTVSRDNSENTLYLQMSSLRAEDTAVYYCAKNPGFGEMDVWGQGTTVTVSS VL: ELVLTQSPGSLFLSPGERATLTCRASQTIGSNLAWYQQKFGQAPRLLIYGASTRAADIPDRFSGSGSGTEFTLTISSLQSEDFAVYYCQQYNSWPPLTFGGGTKVEIK |
| 72.8 | 68.7 | 75.8 | 6.82 | 13.6 | 1.88 | 1.81 | 1.97 | 40596p1.A5 (scFv, V domains shown, tested as scFv-Fc supernatant) VH: EVQLLESGGGLVQPGGSLRLSCAASGFDFSNNAMSWVRQAPGKGLEYVAGSGWSGSFIFYADSVKGRFTVSRDNSENTLYLQMNSLRAEDTAVYYCAKNPGFGEMDVWGQGTTVTVSS VL: EIVLTQSPGSLSLSPGERATLRCRASQSIGSNLAWYQQKPGQAPSLLIYGASTRAADIPDRFSGSGSGTEFTLTITSLQSEDFAVYYCQQYNSWPPLTFGGGTKVEIK |
| 68 | 59 | 67.8 | 20.8 | 56.3 | 1.84 | 1.74 | 1.89 | 40596p1.G10 (scFv, V domains shown, tested as scFv-Fc supernatant) VH: EVQLLESGGGLVQPGGSLRLSCAAPGFDFSKNAMSWVRQAPGKGLEYVAGSGWSGSFIFYADSVKGRFTVSRDNSENTLYLQMSSLRAEDTAVYYCAKNPGFGEMDVWGQGTTVTVSS VL: EIVLTQSPGSLFLSPGERATLTCRASQTIGSNLAWYQQKFGQAPRLLIYGASTRAADIPDRFSGSGSGTEFTLTISSLQSEDFAVYYCQQYNSWPPLTFGGGTKVEIK |
| 70.3 | 69.4 | 28.1 | 75.5 | 92.8 | 1.75 | 0.745 | 1.7 | 40617p1.2.A3 (scFv, V domains shown, tested as scFv-Fc supernatant) VH: EVQLLESGGGLVQPGGSLRLSCAASGFTFSNYWMTWVRQAPGKGLEWVSAISSYGGNYIYYADSVKGRFTISRDNSKDTLYLQMNSLRAEDTAVYYCAKDWDDGMDVWGQGTTVTVSS VL: EIVMTQSPAVLSVSPGERATLSCRASQSVNSKLAWYQQKPGQAPRLLIYGASTRAAGIPDRFSGSGSGTDFTLTISSPQSEDFAVYYCQHYYDLPPYSFGGGTKVEIK |
| 69.5 | 68.5 | 12.5 | 39.4 | 30.6 | 1.81 | 1.05 | 1.83 | 40617p1.2.H1 (scFv, V domains shown, tested as scFv-Fc supernatant) VH: EVQLLESGGGLVQPGGSLRLSCAASGFTFTNYWMTWVRQAPGKGLEWVSAISSYGGNYMYYADSVKGRFTISRDNSENTLYLQMNSLRAEDTAVYYCAKDWDDGMDVWGQGTTVTVSS VL: EIVMTQSPAVLSVSPGERATLSCRASQTVGSKLAWYQQKPGQAPRLLIYGVSTRAAGIPDRFSGSGSGTDFTLTISSLQSEDFAVYYCQQYYDLPPYSFGGGTKVEIK |
| 78.8 | 67.9 | 82.9 | 108 | 77.9 | 1.57 | 1.13 | 1.67 | 40617p1.2.A1 (scFv, V domains shown, tested as scFv-Fc supernatant) VH: EVQLLESGGGLVQPGGSLRLSCAASGFTFSSYWMTWVRQAPGKGLEWVSAISSYGGQYTYYADSVKGRFTISRDNSKDTLYLHMDSLRAEDTAVYYCAKDWDDGMDVWGQGTTVTVSS VL: EIVMTQSPAVLSVSPGERATLSCRASQSVNIKLAWYQQKPGQAPRLLIYGASTRAAGIPDRFSGSGSGTDFTLTISSLQSDDFAVYYCQQYYDLPPYSFGGGTKVEIK |
| 67.8 | 68.4 | 60.7 | 154 | 39.3 | 1.77 | 1.5 | 2.17 | 40617p1.2.H8 (scFv, V domains shown, tested as scFv-Fc supernatant) VH: EVQLLESGGGLVQPGGSLRLSCAASGFTFSSYWMTWVRQAPGKGLEWVSAISSYGGNYMYYADSVKGRFTISRDNSKDTLYLQMNSLRAEDTAVYYCAKDWDDGMDVWGQGTTVTVSS VL: EIVMTQSPATLSVSPGDRATLSCRASQSVNSKLAWYQQKPGQAPRLLIYAASSRATGIPDRFSGSGSGTDFTLTISRLEPEDFAVYYCQQYYDLPPYSFGGGTKVEIK |
